The source of these data is article PMC9561264.

“And” between values parts separate entries of the source, which are not always exact repeats. Equal entries are not always repeated.

Data set [1] concerns the target T1, hOGG1 wild type;c-Myc;Max (human;human?;human?) (UniProt O15527+P01106). Kind of data set: AFM (QD-Myc). As to conditions: FP at 25°C with 5 nM labelled DNA, EMSA room temp 30 min, 15% native PAGE 0.5x TBE 4°C, interaction buffer 20 mM Tris-HCl pH 7.6, 200 mM NaCl (Fig. S12) …. A general note: Mobility shift assays separate free from complexed probe on a gel.
The target of data set [2] is hOGG1 K249Q K249Q (human) (UniProt O15527). Kind of data set: AFM. As to conditions: 8-oxoguanine at ~50% (49.8%) of length, FP at 25°C with 5 nM labelled DNA, EMSA room temp 30 min, 15% native PAGE 0.5x TBE 4°C.
The target in data set [3] is T1, hOGG1 wild type;c-Myc;Max (human;human?;human?). Kind of data set: AFM. As to conditions: 8-oxoguanine at ~50% (49.8%) of length, FP at 25°C with 5 nM labelled DNA, EMSA room temp 30 min, 15% native PAGE 0.5x TBE 4°C.
Data set [4] has as its target hOGG1 C28A;c-Myc C28A (human;human?) (UniProt O15527+P01106). Kind of data set: AFM. The following applies: 8-oxoguanine at ~50% (49.8%) of length; FP at 25°C with 5 nM labelled DNA; EMSA room temp 30 min, 15% native PAGE 0.5x TBE 4°C; interaction buffer 20 mM Tris-HCl pH 7.6, 200 mM NaCl (Fig. S12) ….
The next data set has as its target hOGG1 C28A C28A (human) (UniProt O15527). Kind of data set: AFM. The following applies: oxidising; specificity 779 ± 471; 8-oxoguanine at ~50% (49.8%) of length; FP at 25°C with 5 nM labelled DNA; EMSA room temp 30 min, 15% native PAGE 0.5x TBE 4°C; interaction buffer 20 mM Tris-HCl pH 7.6, 200 mM NaCl (Fig. S12); reduci.
The target in data set [5] is hOGG1 K249Q;c-Myc K249Q (human;human?) (UniProt O15527+P01106). Kind of data set: AFM. The following applies: 8-oxoguanine at ~50% (49.8%) of length, FP at 25°C with 5 nM labelled DNA, EMSA room temp 30 min, 15% native PAGE 0.5x TBE 4°C.
Data set [6] deals with T2, hOGG1 wild type;c-Myc (human;human?) (UniProt O15527+P01106). Kind of data set: AFM. The following applies: 30 nM Myc, 8-oxoguanine at ~50% (49.8%) of length, FP at 25°C with 5 nM labelled DNA, EMSA room temp 30 min, 15% native PAGE 0.5x TBE 4°C, interaction buffer 20 mM Tris-HCl pH 7.6, 200 mM NaCl (Fig. S12) ….
The target of data set [7] is hOGG1 C28A;c-Myc;Max C28A (human;human?;human?) (UniProt O15527+P01106). Kind of data set: AFM (QD-Myc). The following applies: 8-oxoguanine 8 bp upstream of E-box, ~50% of length; FP at 25°C with 5 nM labelled DNA; EMSA room temp 30 min, 15% native PAGE 0.5x TBE 4°C; interaction buffer 20 mM Tris-HCl pH 7.6, 200 mM NaCl (Fig. S12) ….
For another data set, the target named is c-Myc;Max (UniProt P01106). Kind of data set: AFM (QD-Myc). The following applies: 8-oxoguanine 8 bp upstream of E-box, ~50% of length; FP at 25°C with 5 nM labelled DNA; EMSA room temp 30 min, 15% native PAGE 0.5x TBE 4°C; interaction buffer 20 mM Tris-HCl pH 7.6, 200 mM NaCl (Fig. S12) ….
Data set [8] has as its target hOGG1 K249Q;c-Myc;Max K249Q (human;human?;human?) (UniProt O15527+P01106). Kind of data set: AFM (QD-Myc). The following applies: 8-oxoguanine 8 bp upstream of E-box, ~50% of length; FP at 25°C with 5 nM labelled DNA; EMSA room temp 30 min, 15% native PAGE 0.5x TBE 4°C; interaction buffer 20 mM Tris-HCl pH 7.6, 200 mM NaCl (Fig. S12) ….
Data set [9] addresses T2, hOGG1 wild type;c-Myc (human;human?). Kind of data set: AFM (QD-Myc). The following applies: 8-oxoguanine 8 bp upstream of E-box, ~50% of length; FP at 25°C with 5 nM labelled DNA; EMSA room temp 30 min, 15% native PAGE 0.5x TBE 4°C; interaction buffer 20 mM Tris-HCl pH 7.6, 200 mM NaCl (Fig. S12) ….

T1 sequence (P01106 whole entry, looked up, chain 1 of 2): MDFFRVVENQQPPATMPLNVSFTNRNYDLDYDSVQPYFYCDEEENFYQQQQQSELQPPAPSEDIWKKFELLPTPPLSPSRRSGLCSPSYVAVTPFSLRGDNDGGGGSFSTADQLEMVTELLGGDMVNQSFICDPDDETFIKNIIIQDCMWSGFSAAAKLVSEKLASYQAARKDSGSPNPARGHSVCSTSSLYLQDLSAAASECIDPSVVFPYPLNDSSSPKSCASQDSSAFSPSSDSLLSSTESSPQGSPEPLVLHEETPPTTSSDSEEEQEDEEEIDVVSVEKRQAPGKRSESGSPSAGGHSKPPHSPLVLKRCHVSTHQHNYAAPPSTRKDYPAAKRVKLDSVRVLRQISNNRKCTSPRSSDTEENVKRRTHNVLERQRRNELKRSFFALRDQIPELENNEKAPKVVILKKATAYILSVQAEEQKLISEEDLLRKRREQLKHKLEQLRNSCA
T1 sequence (O15527 whole entry, looked up, chain 2 of 2): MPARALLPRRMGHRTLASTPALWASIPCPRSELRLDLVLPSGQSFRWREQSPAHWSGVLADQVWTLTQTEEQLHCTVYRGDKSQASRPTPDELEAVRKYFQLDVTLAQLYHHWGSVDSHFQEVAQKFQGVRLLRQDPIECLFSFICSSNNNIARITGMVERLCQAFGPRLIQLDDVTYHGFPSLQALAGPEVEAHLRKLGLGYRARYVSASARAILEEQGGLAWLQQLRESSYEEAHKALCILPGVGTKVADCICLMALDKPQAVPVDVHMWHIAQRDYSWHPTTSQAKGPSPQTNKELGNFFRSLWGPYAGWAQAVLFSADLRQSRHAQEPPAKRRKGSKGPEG
T2 sequence (O15527 whole entry, chain 1 of 2): as the sequence (O15527 whole entry, looked up, chain 2 of 2) above
T2 sequence (P01106 16-454, chain 2 of 2): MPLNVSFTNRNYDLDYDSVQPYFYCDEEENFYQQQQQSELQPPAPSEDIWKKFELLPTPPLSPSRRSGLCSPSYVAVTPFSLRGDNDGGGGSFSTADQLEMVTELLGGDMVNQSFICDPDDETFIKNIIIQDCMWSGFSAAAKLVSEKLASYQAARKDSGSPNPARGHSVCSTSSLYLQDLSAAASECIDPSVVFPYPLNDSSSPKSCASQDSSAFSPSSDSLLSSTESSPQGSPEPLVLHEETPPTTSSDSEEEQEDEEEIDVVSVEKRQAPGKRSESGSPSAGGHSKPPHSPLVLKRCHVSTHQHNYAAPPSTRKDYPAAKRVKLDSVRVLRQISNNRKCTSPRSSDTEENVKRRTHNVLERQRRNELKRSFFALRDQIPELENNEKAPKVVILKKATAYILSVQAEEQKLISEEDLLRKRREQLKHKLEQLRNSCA
Sequence of hOGG1 K249Q;c-Myc K249Q (human;human?) (O15527 whole entry K249Q, chain 1 of 2): as the sequence (O15527 whole entry, looked up, chain 2 of 2) above, with K249Q counted along it
Sequence of hOGG1 K249Q;c-Myc K249Q (human;human?) (P01106 16-454, chain 2 of 2): as the sequence (P01106 16-454, chain 2 of 2) above
Sequence of hOGG1 K249Q K249Q (human) (O15527 whole entry K249Q): as the sequence (O15527 whole entry, looked up, chain 2 of 2) above, with K249Q counted along it
Sequence of hOGG1 K249Q;c-Myc;Max K249Q (human;human?;human?) (P01106 whole entry, looked up, chain 1 of 2): as the sequence (P01106 whole entry, looked up, chain 1 of 2) above
Sequence of hOGG1 K249Q;c-Myc;Max K249Q (human;human?;human?) (O15527 whole entry, looked up, stated change not applied, chain 2 of 2): as the sequence (O15527 whole entry, looked up, chain 2 of 2) above
Sequence of c-Myc;Max (P01106 whole entry, looked up): as the sequence (P01106 whole entry, looked up, chain 1 of 2) above
Sequence of hOGG1 C28A;c-Myc C28A (human;human?) (O15527 whole entry C28A, chain 1 of 2): as the sequence (O15527 whole entry, looked up, chain 2 of 2) above, with C28A counted along it
Sequence of hOGG1 C28A;c-Myc C28A (human;human?) (P01106 16-454, chain 2 of 2): as the sequence (P01106 16-454, chain 2 of 2) above
Sequence of hOGG1 C28A C28A (human) (O15527 whole entry C28A): as the sequence (O15527 whole entry, looked up, chain 2 of 2) above, with C28A counted along it
Sequence of hOGG1 C28A;c-Myc;Max C28A (human;human?;human?) (P01106 whole entry, looked up, chain 1 of 2): as the sequence (P01106 whole entry, looked up, chain 1 of 2) above
Sequence of hOGG1 C28A;c-Myc;Max C28A (human;human?;human?) (O15527 whole entry, looked up, stated change not applied, chain 2 of 2): as the sequence (O15527 whole entry, looked up, chain 2 of 2) above

In the case of E-box AFM substrate, the binding signal in [1] is 0.11 Myc/DNA.

With oxoG 505 bp AFM substrate, the binding signal in [1] (8-oxoguanine at ~50% (49.8%) of length) is 0.15 Myc/DNA and 0.06 Myc/DNA. Further, the binding signal (counts/DNA at oxoG) amounted to 0.09 in data set [2] (oxidising, specificity 294 ± 139, interaction buffer 20 mM Tris-HCl pH 7.6, 200 mM NaCl (Fig. S12), reduci); 0.18 in data set [2] (reducing, specificity 468 ± 197, interaction buffer 20 mM Tris-HCl pH 7.6, 200 mM NaCl (Fig. S12) …); 0.19 in [3] (oxidising, specificity 421 ± 252, interaction buffer 20 mM Tris-HCl pH 7.6, 200 mM NaCl (Fig. S12), reduci); 0.12 in [3] (reducing, specificity 456 ± 289, interaction buffer 20 mM Tris-HCl pH 7.6, 200 mM NaCl (Fig. S12) …); 0.14 in [4]; 0.14 with hOGG1 C28A C28A (human). Also, the binding signal (counts/DNA at oxoG) in [5] (oxidising, specificity 438 ± 217, interaction buffer 20 mM Tris-HCl pH 7.6, 200 mM NaCl (Fig. S12), reduci) is 0.1; in data set [5] (reducing, specificity 421 ± 153, interaction buffer 20 mM Tris-HCl pH 7.6, 200 mM NaCl (Fig. S12) …), 0.15; in [6] (oxidising, specificity 423 ± 155), 0.17; in data set [6] (reducing, specificity 517 ± 161), 0.17.

Regarding oxoG-E-box AFM substrate, the binding signal is 0.16 Myc/DNA in data set [7]; 0.29 Myc/DNA and 0.17 Myc/DNA in data set [1] (8-oxoguanine 8 bp upstream of E-box, ~50% of length); 0.14 Myc/DNA and 0.12 Myc/DNA in the data set with c-Myc;Max; 0.29 Myc/DNA and 0.17 Myc/DNA in data set [8]; 0.12 Myc/DNA and 0.08 Myc/DNA in data set [9].
